{"source": "patent US20220184221A1", "about": "(NUVOBIO, published 2022)", "binders": {"B1": {"name": "EP4 (peptide)", "peptide": "TEDSKTHHH", "modifications": "also: fluorescein label in FP assay, end not given here", "notes": "Fluorescein-labelled in the fluorescence polarization assay; also called EP4 peptide"}}, "key": {"recombinant KDM5C [1]": {"target": "T1, recombinant KDM5C (Homo sapiens (Human), UniProt P41229 1-765)", "T1 construct": "Expressed in SF9 cells from baculovirus, purified on Ni-NTA and detected with an anti-His antibody; also called KDM5C-His6; JARID1CA-c022; not shown: His tag (KDM5C-His6, vector pFB-CT10HF-LIC)", "T1 sequence": "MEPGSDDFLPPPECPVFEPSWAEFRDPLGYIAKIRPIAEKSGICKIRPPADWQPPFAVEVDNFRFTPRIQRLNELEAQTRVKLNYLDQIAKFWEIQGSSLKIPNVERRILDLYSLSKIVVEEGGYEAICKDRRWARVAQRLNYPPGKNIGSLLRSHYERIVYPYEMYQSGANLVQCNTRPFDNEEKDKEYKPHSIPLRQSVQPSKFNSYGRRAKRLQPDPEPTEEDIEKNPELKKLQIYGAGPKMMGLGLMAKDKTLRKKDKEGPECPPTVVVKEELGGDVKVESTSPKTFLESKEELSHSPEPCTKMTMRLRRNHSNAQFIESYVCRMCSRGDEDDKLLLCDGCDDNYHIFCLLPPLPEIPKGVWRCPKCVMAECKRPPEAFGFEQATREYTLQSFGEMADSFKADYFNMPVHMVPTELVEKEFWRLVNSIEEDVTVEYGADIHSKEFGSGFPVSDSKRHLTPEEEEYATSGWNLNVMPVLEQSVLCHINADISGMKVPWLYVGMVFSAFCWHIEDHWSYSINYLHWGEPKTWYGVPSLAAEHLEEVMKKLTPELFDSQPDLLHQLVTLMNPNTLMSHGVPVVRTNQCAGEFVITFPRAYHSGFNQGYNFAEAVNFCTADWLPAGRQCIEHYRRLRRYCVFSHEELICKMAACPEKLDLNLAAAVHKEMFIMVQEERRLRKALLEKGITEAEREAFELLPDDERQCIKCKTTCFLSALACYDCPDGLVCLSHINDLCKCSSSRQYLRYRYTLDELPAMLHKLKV", "assay": "OPAL peptide arrays on cellulose probed with 1 uM His-tagged KDM5C, anti-His-HRP chemiluminescence;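 further: binding of target protein to each arrayed peptide after overnight incubation at 4 °C, read as densitometric chemiluminescence signal intensity per spot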"}, "recombinant KDM5C [2]": {"target": "T1, recombinant KDM5C", "assay": "fluorescence polarization; fluorescein-labelled peptide, recombinant KDM5C serially diluted", "protocol": "Recombinant KDM5C protein was serially diluted in a 384-well plate, followed by the addition of fluorescein-labeled inhibitor peptide in PBS buffer. The mixtures were incubated in the dark for 30 min prior to fluorescent polarization measurements at room temperature on an EnVision Multilabel Plate Reader (PerkinElmer) with the excitation set at 480 nm and emission at 535 nm. Binding curves were generated by fitting the binding data to a hyperbolic nonlinear regression model using Prism 3.0 (GraphPad software, Inc., San Diego, Calif.), which also produced the corresponding dissociation constants (Kd)."}}, "note": "Where no end group is shown, it is not given here. [ ]: non-standard residue; d: D form. Nle = CCCC[C@H](N)C(=O)O", "data": [{"binder": "TDDQ[Nle]THHH", "note": "[EP33]", "values": [{"measurement": "binding result", "setting": "recombinant KDM5C [1]", "result": "binds"}]}, {"binder": "TDST[Nle]THHH", "note": "[EP37]", "values": [{"measurement": "binding result", "setting": "recombinant KDM5C [1]", "result": "binds"}]}, {"binder": "TEEN[Nle]THHH", "note": "[EP34]", "values": [{"measurement": "binding result", "setting": "recombinant KDM5C [1]", "result": "binds"}]}, {"binder": "TEEQ[Nle]THHH", "note": "[EP29]", "values": [{"measurement": "binding result", "setting": "recombinant KDM5C [1]", "result": "binds"}]}, {"binder": "TDDN[Nle]THHH", "note": "[EP40]", "values": [{"measurement": "binding result", "setting": "recombinant KDM5C [1]", "result": "binds"}]}, {"binder": "TEDS[Nle]THHH", "note": "[EP24]", "values": [{"measurement": "binding result", "setting": "recombinant KDM5C [1]", "result": "binds"}]}, {"binder": "TEES[Nle]THHH", "note": "[EP35]", "values": [{"measurement": "binding result", "setting": "recombinant KDM5C [1]", "result": "binds"}]}, {"binder": "TDTS[Nle]THHH", "note": "[EP27]", "values": [{"measurement": "binding result", "setting": "recombinant KDM5C [1]", "result": "binds"}]}, {"binder": "TEDT[Nle]THHH", "note": "[EP28]", "values": [{"measurement": "binding result", "setting": "recombinant KDM5C [1]", "result": "binds"}]}, {"binder": "TDTT[Nle]THHH", "note": "[EP21]", "values": [{"measurement": "binding result", "setting": "recombinant KDM5C [1]", "result": "binds"}]}, {"binder": "TDTN[Nle]THHH", "note": "[EP23]", "values": [{"measurement": "binding result", "setting": "recombinant KDM5C [1]", "result": "binds"}]}, {"binder": "TDTQ[Nle]THHH", "note": "[EP22]", "values": [{"measurement": "binding result", "setting": "recombinant KDM5C [1]", "result": "binds"}]}, {"binder": "TEDQ[Nle]THHH", "note": "[EP25]", "values": [{"measurement": "binding result", "setting": "recombinant KDM5C [1]", "result": "binds"}]}, {"binder": "SDQQ[Nle]THHH", "note": "[EP30]", "values": [{"measurement": "binding result", "setting": "recombinant KDM5C [1]", "result": "binds"}]}, {"binder": "SDQT[Nle]THHH", "note": "[EP32]", "values": [{"measurement": "binding result", "setting": "recombinant KDM5C [1]", "result": "binds"}]}, {"binder": "GAKRHR[Nle]VLRDNI", "note": "[EP44]", "values": [{"measurement": "binding result", "setting": "recombinant KDM5C [1]", "result": "binds"}]}, {"binder": "RTKQTARKSTGG", "note": "[EP41]", "values": [{"measurement": "binding result", "setting": "recombinant KDM5C [1]", "result": "binds"}]}, {"binder": "SDQQKTHHH", "note": "[EP10]", "values": [{"measurement": "binding result", "setting": "recombinant KDM5C [1]", "result": "binds"}]}, {"binder": "SDQTKTHHH", "note": "[EP12]", "values": [{"measurement": "binding result", "setting": "recombinant KDM5C [1]", "result": "binds"}]}, {"binder": "SETQ[Nle]THHH", "note": "[EP38]", "values": [{"measurement": "binding result", "setting": "recombinant KDM5C [1]", "result": "binds"}]}, {"binder": "SETS[Nle]THHH", "note": "[EP39]", "values": [{"measurement": "binding result", "setting": "recombinant KDM5C [1]", "result": "binds"}]}, {"binder": "SETQKTHHH", "note": "[EP18]", "values": [{"measurement": "binding result", "setting": "recombinant KDM5C [1]", "result": "binds"}]}, {"binder": "SETSKTHHH", "note": "[EP19]", "values": [{"measurement": "binding result", "setting": "recombinant KDM5C [1]", "result": "binds"}]}, {"binder": "TTQSKTHHH", "note": "[EP6]", "values": [{"measurement": "binding result", "setting": "recombinant KDM5C [1]", "result": "binds"}]}, {"binder": "TTQQKTHHH", "note": "[EP11]", "values": [{"measurement": "binding result", "setting": "recombinant KDM5C [1]", "result": "binds"}]}, {"binder": "TTQTKTHHH", "note": "[EP16]", "values": [{"measurement": "binding result", "setting": "recombinant KDM5C [1]", "result": "binds"}]}, {"binder": "TTQS[Nle]THHH", "note": "[EP26]", "values": [{"measurement": "binding result", "setting": "recombinant KDM5C [1]", "result": "binds"}]}, {"binder": "TTQT[Nle]THHH", "note": "[EP36]", "values": [{"measurement": "binding result", "setting": "recombinant KDM5C [1]", "result": "binds"}]}, {"binder": "TTQQ[Nle]THHH", "note": "[EP31]", "values": [{"measurement": "binding result", "setting": "recombinant KDM5C [1]", "result": "binds"}]}, {"binder": "TDDQKTHHH", "note": "[EP13]", "values": [{"measurement": "binding result", "setting": "recombinant KDM5C [1]", "result": "binds"}]}, {"binder": "TDTTKTHHH", "note": "[EP1]", "values": [{"measurement": "binding result", "setting": "recombinant KDM5C [1]", "result": "binds"}]}, {"binder": "TEDTKTHHH", "note": "[EP8]", "values": [{"measurement": "binding result", "setting": "recombinant KDM5C [1]", "result": "binds"}]}, {"binder": "TDTNKTHHH", "note": "[EP3]", "values": [{"measurement": "binding result", "setting": "recombinant KDM5C [1]", "result": "binds"}]}, {"binder": "TEEQKTHHH", "note": "[EP9]", "values": [{"measurement": "binding result", "setting": "recombinant KDM5C [1]", "result": "binds"}]}, {"binder": "TEDQKTHHH", "note": "[EP5]", "values": [{"measurement": "binding result", "setting": "recombinant KDM5C [1]", "result": "binds"}]}, {"binder": "TEESKTHHH", "note": "[EP15]", "values": [{"measurement": "binding result", "setting": "recombinant KDM5C [1]", "result": "binds"}]}, {"binder": "TEENKTHHH", "note": "[EP14]", "values": [{"measurement": "binding result", "setting": "recombinant KDM5C [1]", "result": "binds"}]}, {"binder": "TDSTKTHHH", "note": "[EP17]", "values": [{"measurement": "binding result", "setting": "recombinant KDM5C [1]", "result": "binds"}]}, {"binder": "B1", "values": [{"measurement": "Kd", "setting": "recombinant KDM5C [2]", "result": 0.11, "unit": "nM"}]}, {"binder": "TDTSKTHHH", "note": "[EP7]", "values": [{"measurement": "binding result", "setting": "recombinant KDM5C [1]", "result": "binds"}]}, {"binder": "TDDNKTHHH", "note": "[EP20]", "values": [{"measurement": "binding result", "setting": "recombinant KDM5C [1]", "result": "binds"}]}, {"binder": "TDTQKTHHH", "note": "[EP2]", "values": [{"measurement": "binding result", "setting": "recombinant KDM5C [1]", "result": "binds"}]}, {"binder": "GAKRHRKVLRDNI", "note": "[EP43]", "values": [{"measurement": "binding result", "setting": "recombinant KDM5C [1]", "result": "binds"}]}]}
